Reference: US20210171647A1 (WUXI BIOLOGICS SHANGHAI, published 2021)
Substitutions are numbered along the chain they refer to.

Assays:
[1] = molecular target: T1, human OX40-ECD.His S38A (human, UniProt P43489 29-214); test: ELISA, antibody coated, OX40-ECD.His mutant supernatant; relative to silent alanine substitutions;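 further: captured OX40 mutant protein detected with HRP-labelled anti-His antibody, absorbance read-out, scaled to the mean signal of control mutants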
T1 construct: extracellular domain; not shown: C-terminal His-tag
T1 sequence (looked up): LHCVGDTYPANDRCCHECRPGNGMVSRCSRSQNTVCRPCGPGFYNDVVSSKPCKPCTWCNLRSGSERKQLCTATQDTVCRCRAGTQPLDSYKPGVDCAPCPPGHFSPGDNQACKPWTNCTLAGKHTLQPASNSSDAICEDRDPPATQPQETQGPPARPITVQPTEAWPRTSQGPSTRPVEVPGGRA

[2] = molecular target: T2, human OX40-ECD.His H30A (human, UniProt P43489 29-214); test: as above
T2 construct: extracellular domain; not shown: C-terminal His-tag
T2 sequence (looked up): T1 sequence (looked up) with H2A, A10S

[3] = molecular target: T3, human OX40-ECD.His N39A (human, UniProt P43489 29-214); test: as above
T3 construct: extracellular domain; not shown: C-terminal His-tag
T3 sequence (looked up): T1 sequence (looked up) with A10S, N11A

[4] = molecular target: T4, human OX40-ECD.His W86A (human, UniProt P43489 29-214); test: as above
T4 construct: extracellular domain; not shown: C-terminal His-tag
T4 sequence (looked up): T1 sequence (looked up) with A10S, W58A

[5] = molecular target: T5, human OX40-ECD.His D168A (human, UniProt P43489 29-214); test: as above
T5 construct: extracellular domain; not shown: C-terminal His-tag
T5 sequence (looked up): T1 sequence (looked up) with A10S, D140A

[6] = molecular target: T6, human OX40-ECD.His Q139A (human, UniProt P43489 29-214); test: as above
T6 construct: extracellular domain; not shown: C-terminal His-tag
T6 sequence (looked up): T1 sequence (looked up) with A10S, Q111A

[7] = molecular target: T7, human OX40, full-length, on cells (human, UniProt P43489 29-277); test: FACS, transfected 293F cells, antibody 1 ug/mL
T7 construct: whole, on cells; also called hPro1; cell surface human OX40
T7 sequence (looked up): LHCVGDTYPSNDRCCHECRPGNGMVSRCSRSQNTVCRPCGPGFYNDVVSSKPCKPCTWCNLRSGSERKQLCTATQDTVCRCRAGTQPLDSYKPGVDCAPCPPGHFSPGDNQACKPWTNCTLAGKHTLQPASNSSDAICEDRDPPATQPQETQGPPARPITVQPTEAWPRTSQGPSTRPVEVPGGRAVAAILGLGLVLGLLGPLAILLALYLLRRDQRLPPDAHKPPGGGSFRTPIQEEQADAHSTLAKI
Method: (§1) Binding of antibodies to chimeric OX40 variants was analyzed by flow cytometry. […] Cells were analyzed using flow cytometer.

[8] = molecular target: T8, mouse OX40 (mPro1) on transfected 293F cells (mouse, UniProt P47741 20-272); test: FACS, transfected 293F cells, antibody 1 ug/mL
T8 construct: whole, on cells
T8 sequence (looked up): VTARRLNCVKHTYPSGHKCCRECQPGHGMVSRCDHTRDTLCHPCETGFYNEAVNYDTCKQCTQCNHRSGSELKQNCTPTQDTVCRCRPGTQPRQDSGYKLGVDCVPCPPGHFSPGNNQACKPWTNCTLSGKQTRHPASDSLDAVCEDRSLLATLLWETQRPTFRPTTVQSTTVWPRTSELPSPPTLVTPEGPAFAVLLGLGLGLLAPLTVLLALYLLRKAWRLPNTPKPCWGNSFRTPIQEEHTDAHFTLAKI
Method: as §1

[9] = molecular target: T7, human OX40, full-length, on cells; test: flow cytometry on activated human CD4+ T cells
Method: Briefly, human OX40-expressing CHO-K1 cells or activated human CD4⁺ T cells were transferred into 96-well U-bottom plates (Corning) at a density of 1×10⁵ cells/well. Testing antibodies were serially diluted in wash buffer (1×PBS/1% BSA) and incubated with cells at 4° C. for 1 h. After washing with 1×PBS/1% BSA, the secondary antibody goat anti-human IgG Fc-PE (Jackson ImmunoResearch Lab) was applied and incubated with cells at 4° C. in the dark for 1 h. The cells were then washed and resuspended in 1×PBS/1% BSA or fixed with 4% paraformaldehyde, and then analyzed by flow cytometry (BD).

[10] = molecular target: T9, human 4-1BB (CD137) ECD (human, UniProt Q07011 24-186); test: ELISA on coated ECD, one antibody concentration (not given)
T9 construct: extracellular domain

[11] = molecular target: T10, human CD271 ECD (human, UniProt P08138 29-250); test: as above
T10 construct: extracellular domain
T10 sequence (looked up): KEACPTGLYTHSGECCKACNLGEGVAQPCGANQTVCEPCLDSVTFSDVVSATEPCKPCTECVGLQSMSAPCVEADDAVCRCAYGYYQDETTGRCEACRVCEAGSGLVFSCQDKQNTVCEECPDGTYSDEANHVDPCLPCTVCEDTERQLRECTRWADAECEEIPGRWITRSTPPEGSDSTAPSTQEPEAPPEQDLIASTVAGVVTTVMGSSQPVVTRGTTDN
Method: (§2) Human OX40, CD40, 4-1BB (CD137) and CD271 ECD were coated on plates (Nunc) overnight at 4° C. After blocking and washing, testing antibodies were diluted in blocking buffer and added to the plates and incubated at room temperature for 1 h. The plates were then washed and subsequently incubated with secondary antibody goat anti-human IgG Fc-HRP (Bethyl) for 1 h. After washing, TMB substrate was added and the interaction was stopped by 2M HCl.

[12] = molecular target: T11, human CD40 ECD (human, UniProt P25942 21-193); test: as above
T11 construct: extracellular domain
T11 sequence (P25942 21-193): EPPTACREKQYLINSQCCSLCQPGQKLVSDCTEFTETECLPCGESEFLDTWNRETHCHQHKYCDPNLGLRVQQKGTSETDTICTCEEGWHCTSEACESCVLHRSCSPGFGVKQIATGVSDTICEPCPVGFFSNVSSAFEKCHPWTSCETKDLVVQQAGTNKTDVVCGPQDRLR
Method: as §2

T9 sequence (Q07011 24-186): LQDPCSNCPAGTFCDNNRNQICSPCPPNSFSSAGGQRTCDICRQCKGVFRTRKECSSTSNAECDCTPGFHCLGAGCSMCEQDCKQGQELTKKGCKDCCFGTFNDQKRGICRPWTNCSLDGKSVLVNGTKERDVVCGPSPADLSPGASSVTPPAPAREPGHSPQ

Fold Change [1]: 0.997
Fold Change [2]: 1.01
Fold Change [3]: 0.988
Fold Change [4]: 0.842
Fold Change [5]: 0.983
Fold Change [6]: 0.999
MFI [7]: 9160
PE + % [7]: 85.2%
MFI [8]: 44.4
PE + % [8]: 0.937%
EC50 (read off the curve) [9]: 1 to 2 nM
binding result [10]: no binding
binding result [11]: no binding
binding result [12]: no binding
B1: 1.134.9-u1-IgG1L (antibody, V domains shown)
VH: QVQLQESGPGLVKPSGTLSLTCAVSGGSISSYNWWSWVRQPPGKGLEWIGEIYHGGNTNYNPSLKSRVTMSVDNSKNQFSLKLSSVTAADTAVYYCARAPGDWGGSPYFDFWGQGTLVTVSS
VL: SSELTQDPAVSVALGQTVRITCQGDNLRTYYASWYQQKPGQAPILLIYGRNKRPSGIPDRFSGSSSGNTASLTITGAQAEDEAAYYCNSRDSSGNPVVFGGGTKLTVL
notes: fully human IgG1, lambda
